experiment: soluble on expression in E. coli; label from the status in PepcDB or PDB records

Sequence	soluble on expression in E. coli
MKCIETPKSAEEWRKVERTFAKKHILRCLGSLDGKHIRIKAPPHSGSLFFNYKHFFSFVLLVVVDADGRVIWVDVGSPGSNNDASIFSDSKLKTILDEEANLPPPTFWSRDFVVKPFVIADGIFKITPRMMTLYGGNGLNISQKVLNKKLSRARVKAEHAFGRLSAKFRILRREMECPYEKSVDIILALCHLHNYLIGKAEDVVNVPIETNMIPYKDGKEQRDYLCRYLNN	not soluble
MKCKVYTVVVPNVQSATLLPIIREKVKPDSIVYTDTFRSYDVLDVSEFSHFRINHSTHFAENHNYINGIGNFWNHAKRHLQKFNGIPKEHFELYLKECEWRFNNSEIKSQISILKQLVKGSLVLEHHHHHH	not soluble
MKDLSSIVAKFNTQGTITEIKPLGAGLINDTYKVNTQEADAPDYVLQRINHAIFQNVEMLQSNIAAVTGHIRKKLTEAGEADIDRKVLSFLATEEGKTYWFDGESYWRVMVFIPRAKTYETVNPEYSNYAGEAFGNFQAMLADIPETLGETIPDFHNMEFRLKQLRDAVAANAAGRVAEVQYYLDEIEKRADEMCKAERLFREGKLPKRVCHCDTKVNNMMFDEDGKVLCVIDLDTVMPSFIFSDYGDFLRTGANTGDEDDKDLNRVNFNMEIFKAFTKGYLKGAKSFLTPIEIENLPYAAALFPYMQCVRFLADYINGDTYYKIKYPEHNLVRTKAQFKLLQSVEEHTPEMVAFINECLVNGLEHHHHHH	soluble
MKDNLKEARRYLNNAKEMLSQKAKKEGKFYQDKKYIRLAGHAAYSGVLIALDNVLGNKDSGRKSVDWYKSELAKLDKKALTAFNGAYETLHLAMSYDGNIVANVSKSGIELADSIITWAETRTAAA	not soluble
MKDPLLNSLIYVSRYYGLANSPEALVNGLPLSDGKLTPFLLPRAAERAGLVAKENRAELEKISSLILPAILVLKGGDSCVLNSINMETREAEVTTLESGMVPISIPLEDLLEQYTGRYFLVKKQFRFDERSPEVLKTKEGHWFWSTLWQSKRIYRD	not soluble
MKDVTIYHNPRCSKSRETLALVEQQGITPQVVLYLETPPSVDKLKELLQQLGFSDARQLMRTKEDLYKTLNLDDRGLTQDQLLQAMADNPKLIERPIVVTQGKARIGRPPEQVLEILK	not soluble
MKEHQKLEHPAQVKTKSFEDAAFEMLSTVSPIKLPRDEIPFDSVREIVLGEIIKSKQRNSRSSANDRRNMDDLLDEAPSSSSSSSHVGESSSSNLDRGTMTDEGCTDIGGAPRPIAARLYGDCTRSSSTSTSSAAGPSCSSDVATVENSKKKPLNYREKRLAEIRAARLKKYRENAEIVEFKCEENCLAEVFTKYYLELLDDEAGPANLYYRVVESLDVYFRVKTWESNCPKLLCEFLCDHILKTCQQLNELHESKNMTDEWRARECQIQVLLTLHVYVVTDERRWLDEAINKLRMIYISVGAERLRTFVEEPVTDIYLELIGDGLATIYDELCINLPADLIQYDTGLFKMTETDDSLVVKRRNGAANRLEQMLNETSADLGVGGVERARRTSTEAAAPQRRSLKRRNIEDVPKELLSPARTTRTSRSDYKHFFVEDTPDEKYQKKTTKVEEIEMNEEEDGEIGAESTSKRKTVTIKEEIDEEVKQTPMAKLRASAKLNGKRCSKRLSDLVKLSEERTQVTKKARENLNKLLEKANTPIRSVTRPIRKSVLFGSAGSMSSSPATTKCARGTSSRTSLLNKFSEMEEKKKSPLAVDTSDGHIIHTPSSASESTTPVLRDRATRRRTTRFNDKNYQPNVLKQEMHDPEFDAMESSMASPSKRTTKNSSTAASASTTPVSKWTDRQLKRQLGLTREDLNRYREAMLTTGERNRNKNVKINWESAQVNRAGRVKGAGASEDGTPIFGIARRNVRTMICHVLLNDTNPDTSFDWNKVKFDDFCGKPRTRQFQSLIQKPEAYMESLKQKYIESRVSSAKRMRSNDGASTSSRPAKRRRSNASSPKKQTASSSASSTKSLKSPVKLEAFDDFGFESEADD	soluble
MKEQNESFVVDFVGGAVGHRFRSGEGRGQALPKAAGFTKGRTPKIVDATAGLGRDAFLLASLGAEVTLIERSPGMHAHLADGISRALEAGGAYAEAASRMTLLQGDSRQLLKELSPEVVVIDPMHPPRHNTALVKKEMRVLRELVGSDPDQVELMEVALAHATKRVVLKWPLRADPMPGIRKPSHQIIGKNTRYDVFMIFGNSLDQQELEHHHHHH	soluble
MKERIVGQSGELFCFGQMPVWKVENLPEVLLSGYSSEEGEWVCLNVLQGDVEVRAPDGAAEVWSAESGDCVFAPQQVFSVKPKTDDAEIRLSLYCAAADYFHKKYGMSATHSAVAAAQDTVPAGRALDMGCGQGRNALFLGLKGFDVTAADCNPAALANVAELAEAEGLNVRTLEYDLNAAALQGEFDYIVATVVLMFLMPQRVPDVIADMQAHTAAGGYNLIVSAMDTADFPCPMPFPFKFKEGELKDYYRDWELVEYKEELGAMHAKDENGNPIRFKFVTMLAKKPGLEHHHHHH	soluble
MKESLIEAKVMDYGKLKDIQKEILYYKLYVDALKKKGIKEKVDPPPTLPKSIVSSVLTGGIPRDGPLQIELVSNDVVKIKEYNTLVKIQSDSRLPLYAIVEYRDTDIRVYLAYRENPSIVGLDLGLRHLITIVAIKDTKPWKVRFFDEPKLMEKFANFLSENQGIIKLEEMKSNAKRIIYEAVSFIEDLEPKVVAMENLEYFETKTGKGLRALQNMLENEIRRRGIRYRKIDPYNTSRVCAKCGYKKGEILGSLFVCPACGYKADRDYNAAYNIALKCYYTCLEHHHHHH	not soluble
MKETCDLLAFGAHPDDVEIGMGGTIAKYVRRGYRIVICDLTQAELSSNGTVDERQREAAEAARRLGVSERFNLGLPDRGLYVEEEAIRQIAAVIRRYRPRLVFAPYWEDRHPDHGRCARLVEEAVFSAGIRRYGAGELGDAHRVRAVYYYMINAFCRPHFLIDISETINDKLDSLRAYESQFQKRPGSVDTPLTNGYIEMIESRERWFGQQIGAAYAEGFLTKTPIHLSNLFEEER	soluble
MKEVKKEYLTLDEVKILAQTPCEHDVLKRASLFSCLTGLRISDILNLRWEDFTLAPDQGYCIRIRTQKTSTEATLPISYEAYELCGEPSSGKVFKGLQRSMINYPLKKWIKQAGIMKHITFHCFRHSYAVIQISLGTDIYTVSKMLTHKNVSTTQIYADLEHHHHHH	not soluble
MKFAVIGGTGLIGSQVVKNLNAAGHEAVPHSQSTGIDVISGQGLDQAVAGADVIVNLTNSPTFDEASPAFFQTSMDNLLAAGRKAGVRHFVILSIVGVDQVPELDYYRAKALQEKILAAGPIPYSIVRATQFMEFIDAVLSWTADGDTVRLPATPIQPIAAKDVADAVAEVAAGAPLGGIRNVAGPEIFSLDELGRITLSHKSDGRTVVTDPTAGMFGAVKGDVLTDKDAHLAPTHYADWLS	not soluble
MKFDDSKPIYKQIVHYIHTEIVTGTYEAGDKLLSVRELATKLEVNPTTIQRAYAELEEAGIIFTVRGTGKYLTEDKRRIEQLENHIAKQLTENFISEMSKLGINKEKIIAWVKKVEEVEVNASGK	not soluble
MKFDVIIIGGSYAGLSAALQLGRARKNILLVDAGERRNRFASHSHGFLGQDGKAPGEIIAEARRQIERYPTIHWVEGRVTDAKGSFGEFIVEIDGGRRETAGRLILAMGVTDELPEIAGLRERWGSAVFHCPYCHGYELDQGKIGVIAASPMAIHHALMLPDWGETTFFTNGIVEPDADQHALLAARGVRVETTRIREIAGHADVVLADGRSIALAGLFTQPKLRITVDWIEKLGCAVEEGPMGSTIVTDPMKQTTARGIFACGDVARPAGSVALAVGDGAMAGAAAHRSILFPEMR	soluble
MKFFDREREINEILHILNREPDDIYFIYGPLNSGKTALIKHIIENKLSDDYKVFYINFRTYLISEKREFIEAIFTTKKDDFFEKIKDKDEVLNLITKGVRILTGIPIPEVEFDKLFEEKINDAFQYLNSLLLEVKKSGKKPILIFDELQMIKDVVLNTENQRFSAFPSLRFGNGQKYLLKELFQFLVSLTKEQHLCHVFCLSSDSLFIEYVYSTGELEGRAKYLLVDDFDKETALKFMDFLAVENNINLTNEDKELIYSYVGGKPKDIKYVVEESKFKDLREILEFMLKDAVQKLDMFLDMLNYSKPKVDVGDEVIEIKKDNVIEALKLFKDEYEVSKKHIPVPVYTYLIKRNILFLNPIEGILKPQSYLVWNAIKRLL	not soluble
MKFKKLLSRIIIATMITFTGTLSYQAIEQTHISHAAHNYYGKKQCTWWAFKRRAQLGKPVSNRWGNAKNWYSNARRSGYATGHKPRKYAVMQSTRGYYGHVAVVEKVYKNGKIKISEYNYNVPLGYGTRIISKSSARNYNYIYLEHHHHHH	not soluble
MKFKYGATLFSGFLGLSAILAACGAKGKFDQVDDGKIVLASSLTSKNAANALQAVVEKYNQVKGGNDYPIEITQITGGYDGGRGNLQTKLSVKDKTTFYNLI	soluble
MKFLHTADWHIGKKLHGFDLLAEQREAFEQILAIAKEEQVDAVVIAGDLYDRSVPAVEAVEIFNEMMIQMNLKEHFPVLAISGNHDSSTRLETGGPWFNQTQFHLNTRLEQAFQPIEIDNTQFYLLPYFEPIAARLYFEDETIRTIQAAMEKVVAKMQESFLPNKKQVLVSHFFVAGSEKTDSETKLTVGGLDVVPTALLEPFDYVALGHLHGKNALQAPNARYSGSPVKFSLSEMTQEKGVWLVETEAEVHFQFRALKPLRDIQQLTGSFQQLTDPAFYQEVNRENYLHVQLTDRAIIPNMMNQLRKIYPKIIGLERLNGRETSSGNQKKVVQIEQRSPEEHLHDFFNDVTGEALTEQQAQWVQEELSTLNQLERGK	not soluble
MKFLILSVSAGGGHIHAAFALKKYIAKYLEGSQVKMLDTIKYLNPFLDKVLIGGYLKTLKVSPALFGKLYNFTEKDDNLASLSNKINEFMAYKLIPIIEDFNPDVIICTHPFPTEMVSILKSKESLKTPMLCILTDYAPHSFWIRPQVNSYVVSNSDMVDEMVRRGVNRENIYDLGIPVDPDFIRNFDKIETLNELNLSLNKKTILIMGGSLGIGKIEDIYEALSKSRANIQIIIITGNNKKLYSKLLELAEDSYVETRILGYTRDVNRYMQASDLLLTKPGGLTITEALICRVPLAVFSPIPGQEEKNEDFLLKHNLAISIRDSENCLGIIESLISNPELLQAMKDNCNKFSKPSSGKDICNLLINLINKNQKIDVNNADYRN	not soluble
MKFLNQHELTKLLALLDLDHGLDWDYFLLLIAKTGLRFGEALGVTPMDFDMAKLTLTINKTWDYKSATGSFAETKNTASVRKVPLDWQVAMQFAAQIKSLPQDKPIFVTDGQRVYNETANDILERKCKRASIPVISIHGLRHTHASLLLYAGVSVGSVARRLGHANMSTTQKTYLHILEHHHHHH	soluble
MKFVAVIRQVPDGESKLRIQGDRVDLSGATMILDQMDEYAVEEAIRLKERHGGEAVVVGFGPERTEEAIRTALAMGMDRGVHVVYEGFADPVAVAEALVEVLKEEAPTLVLTGGQQADWDSQALGGALTEALGVPVVAWTTALELEGDTAKAKHDLDEGAEWVRVRLPAVFTTQQGLNEPRYPTLPGIMKAKKKEIRKVQASLTPKVTLISEEIQEKSRLGKILDGKDPVAAAEELVRLLHEEAKVI	soluble
MKFYTILSILFISFMLSACAVLQKSSPLQENKDFYILDTHTQKKISFEDMILELLKADVILLGEKHDEVKHKISQVMIFNALEGNLSSQNINFDVALEMLASTEQNHLDKAFKNKKTIKANELTNALNWDKVWKWKDYEQFVNVVFYSKSKILGANLSRSEITSIYNGAQPLKGYVSTTNEVKKQLFDIISLSHKLNPEENKELLDKLVEIQQFKDRRMADVLVHHVNKVLLLAGSYHTSKKIGIPLHIQDFKSSKKIVVVNLSYGEIDLKDSDYVLIYKGEE	not soluble
MKGFYHHPSRTISLRNNLSERQLRSTLAHELGHAMRGDVPTSGVFAEHIERRADEFAARLLISPIEYRLAESLHDGHIGAIAYELGVTVRLVEVWRDMHDRITA	not soluble
